Data published in the nanobody polyreactivity screen of Harvey et al. (2022).

Assay: yeast display, Sf9 membrane polyspecificity reagent, FACS + sequencing; frameworks hold sequencing errors
In short: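 Genes from sorted yeast were amplified by colony PCR, read by MiSeq 2 × 250 sequencing and filtered on CDR length. These cells carried a synthetic nanobody library in Saccharomyces cerevisiae BJ5465 and were sorted by FACS into low and high (top ~1%) gates on anti-HA and streptavidin fluorescence. Polyreactivity is labelled according to the gate of origin.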

| Sequence | polyreactivity (PSR sort gate) |
| --- | --- |
| QVQLVESGGGLVQAGGSLRLSCAASGRTFASYVMGWYRQAPGKERELVASITRTGSTYYADSVKGRFTISRDNAKNTVYLQMNSLKPEDTAVYYCNAATFYRRSSTRGFNYWGQGTQVTVSS | high polyreactivity |
| QDQLVESGGGLVQAGGSLRLSCAASGRTFTYYTMGWYRQAPGKERELVAAITWSGGRTYYADSVKGRFTISRDYAKNTVYLQMNSLKPEDTAVYYCAKPPQGTYDYWGQGTQVNVSS | low polyreactivity |
| QVQLVESGGGLVQAGGSLRLSCAASGFTFSLYAMGWYRQAPGKERELVASISRSGGSTYYADSVKGRFTISRDNAKNTVYLQMNSLKPEDTAVYYCAARWRPYKYDSWGQGTQVTVSS | high polyreactivity |
| QVQLVESGGCLVQAGGSRSLSCAASGSIFYRNAMGWYRQAPGKERELVAAIRGSDGSTYYADSVKGRFTISRDNGKNTVYLQMNSLKPEDTAVYSCNADTPTWPLDYWGQGTQVTVSS | low polyreactivity |
| QVQLVESGGGLVQAGGSLRLSCAASGRIFPGYAMGWYRPAPGKERELVAAISKSGVSTYYADSVKGRFTISCDNAKNTVYLQMNSLKPEDTAVYYCAAVSYSYFSRGYRTFQLAYWGQGTQVTVSS | high polyreactivity |
| QVQLVESGGGLVQAGGSLRLSCAASGFIFYYNAMGWDRQAPGKERELVAAIDSGGRTNYADSVKGRFTISRDNAKNTVYLQMNSLKPEDTAVYYCATDPYQPYEGDYWGQGTQVTVSS | low polyreactivity |
| QVQLVESGAGLVQAGGSLRLSCAASGSTFKPNVMGWYRQAPGKERELVAAITSTDDRTYYADSVKGRFTISRDNAKNTVYLQMNSLKPEDTAVYYCAVESLRDDFEYDYWGQGTQVTVSS | low polyreactivity |
| QVQLVESGGGLVQAGGSLRLSCAASGYIIYVYAMGWYRQAPGKERELVADISLNGGSTYYADSVKGRFTISRDNAKNTVYLEMNSLKPEDTAVYYCAADGWLYRTYWYYYWGQGTQVTVSS | high polyreactivity |
| QVQLVESGGGLVQAGGSLRLSCAASGSTFYAYDMGWYRQAPGKEREWVAAISRSGGNTYYADSVKGRFTISRDYAKNTVYLQMNSQKPEDTAVYYCNARSSVYGHRKGSARIPRYDYWGQGTQVTVSS | high polyreactivity |
| QVQLVESGGGLVQAGGSLRLTCAASGIIFDTNAMGWYRQAPGKERELVATITQRGGTTYYADSVKGRFTISRDNAKNTVYLQMNSLKPEDTAVYYCNAGPVRLPYDSWGQGTQVTVSS | low polyreactivity |
| QVQLVESGGGLVQAGGSLRLSCAASGSTFYNYAMGWYRQAPGKERELVAAIRNGGGTNYADSVKGRFTISRDNAKITVYLQMNSLKPEDTAVYYCNKAYGVSGPGVDYWGQGTQVTVSS | low polyreactivity |
| QVQLVESGGGLVQAGGSLRLSCAASGSIFEINAKGWYRQAPGKERELVADIRRGDSTNYADSVKGRFTISRDNAKNTVYLQMNSLKPEDTAVYYCAAYHRLFDYDYWGQGTQVTVSS | high polyreactivity |
| QVQRVESAGGLVQARGSLRLSCAASGRIFYYNAMGWYRQAPGKEREFVAAITSVGSTNYADSVKGLFTISRDNAKNTVYLQMNSLKPEDTAVYYCARASAWYVTLVGKYTKYDYWGQGTQVTVSS | low polyreactivity |
| QVQLVESGGGLVQAGGSLRLSCAASGIIFYYYVMGWDRQAPGKERELVAAISDSGDNTYYADSVKGRFTISRDNAKKTVYLQMNSVKPEDTAVYYCNSQVDYWSNPWIYRKYDYWGQGTQVTVSS | high polyreactivity |
| QVQLEESGGGLVQAGGSHRLSCAASGIIFSKYAMGWYRPAPGKEREFGAAISQRGGRTYYADSVKGRFTISRDNAKNTVYLQMNSLNTEDTAVYYCAATGTGGVYPLDYGGQGTQVTVSS | high polyreactivity |
| QVQLVESGGGLVHAGGSLRLSCAASGYIIGYYTMGWYRQAPGKERELVATIRSGGSTYYADSVKGRFTISRDNANNSVYLQINSLKPEDTAVYYCAKRVRRISEYGYWGQGTHVTVSS | high polyreactivity |
| QDQLVESGVGLVQAGGSLRLSCAASGRIFGRYSMGWYRQAPGKEMEFVAAISKRGGGTYYADSVKGRFTISRDNAKNTVYLQMNSLKPEDSAVYYCAVDNSPGFDDYDYWGQGTQVTVSS | high polyreactivity |
| QVQHEESGGGLVQAGGSLRLSCAASGLILFYNDMGWYRQAPGNERELVSVITSGGRTYYADSVKGRFTISRDIAKNTVYLQMNSLKPEDTAVYYCAATYGHPTTYCEGWRYGYWGQGTQVTVSS | low polyreactivity |
| QVQLVESGGGLVQAGGSLRLSCAASGFTFDSNAMGWYRQAPGKERELVAAISKRGGSTYYADSVKGRFTISRDNAKNTVYLQMNRLKPEDTAVYYCAADNYNSGGTRHMYYWGQGSQVTVSS | high polyreactivity |
| QVQLVESGGGLVQAGGSLRLSCAAYGRTITYYAMGGYRQSPGKERELVAAIPWSGGSTYYADSVKGRFTISRDNAKNTVYLQMNSLKPEDTAVYYCSADSYIYSVNYWGQGTQLTVSS | low polyreactivity |
| QFQLVESRGGLVQAGGSLRLSCAASGSIFGSNAMGLYRQAPAKERELVAANSGSGGSTNYADSVKGRLTLSRDIAQNTVYLHMNSLKPEDTAVYYCAVPSKATGSASTSYGIFDSWGQGTQVTVSS | low polyreactivity |
| QVQLVESGGGLVQAGGSLRLSCAGYGSIFWWYPMVWYRQAPGKERELVASISWSGTSTYYADSVKGRFTISRDNAKNTVYLQMNSLKPEDTAVYYCNADVYWPGTPYTHDYWGQGTQVTVSS | low polyreactivity |

| Sequence | polyreactivity (PSR sort gate) |
| --- | --- |
| QVQLVESGGGLVQAGGSLRLSCAASGSTFRLYAMGWYRQAPGKERELVASITTGGSTYYADSVKGRFTISRDNAKNTVYLQMNSLKPEDTAVYYCAAEEYWEMDYWGQGTQVTVSS | low polyreactivity |
| QVQLVESGGGLVQAGGSLRLSCAASGIIFYRNTMGWYRQAPGKERELVAAIRRGGNTYYADSVKGRFTISRDNAKNTVYLQMNSLKPEDTAVYYCAAEDYNGRQYYHKMDYWGQGTQVTVSS | high polyreactivity |
| QVQLVESGGGLVQAGGSLRLSCAASGITFGDYAMVWYRQAPGKERELVAGINWSGDGTYYADSLKGRFTISRDKAKNTVYLQMNSLKPEDSAVYYCAAETFYDYGGYDYWGQGTQVTVSS | low polyreactivity |
| QVQLVESGGGLVQAGGSLRLSCAASGSIFSSNAMGWYRQAPGKERELVAAISRRGGSTYYADSVKGRFTISRDNAKNTVYLQMNSLKPEDTAVYYCNAYPWLLSTRYDYWGQGTQVTVSS | high polyreactivity |
| QVQLVESGGGLVQAGGSLRLSCAASGGILETNAMGWYRQAPGKERELVAAIDFSAGSTYYADSVKGRFTISRDNAKNTVYLQMNSLKPEDTAVYYCATRLGVLYDYWGQGTQVTVSS | low polyreactivity |
| QVQLVESGGGLVQAGGSLRLSCAASGITFEYYAMGWYRPAPGKERELVAAIDTGGSTNYADSVKGRFTISRDNAKNTVYLQMNSLKPEDTAVYSCAADWSWWDGEDDHFEYDYWGQGTQVTVSS | low polyreactivity |
| KVQLVESGGGLVQAGGSLRLSCAASGSTFRTYAMGWYRQAPGKERELVADITWRGGSTYYADSVKGRFTISRDNAKNTDYFQMNSLKPEDTAVYYCATDRGPEVVLYVYWGQGTQVTVSS | low polyreactivity |
| QVQLVESGGGLVQAGGSLRLSCAASGSNFWRKAMGWYRQAPGKERELVAAITCGGSTYYADSVKGRCTISRDNAKNTVYLQMNSLKTEVTAVYYCAAGYSYRYGYWGQGTQVTVSS | low polyreactivity |
| QVQLVESGGRLVQAGGSLRLSCAASGSTFRKYAMGWYIQAPGKERELVASISRGGTTYYADSVKGRFTISRDNAKNTVYLQMNSLKPEDTAVYYCNKASYRWYWGYLDYYYWGQGTQVTVSS | high polyreactivity |
| QVQLVESGGGLVQAGGSLRLSCAASGRTFWLYAMGWYRQATGKERELVAGISRGGRTYYADSVKGRFTISRDNAKNTVYLQMNSLKPEDTAVYYGAADRYTVRMDCWGQGTQVTVSS | high polyreactivity |
| QVQLVESGGGLVQAGGSLRLSCAASGSIFAYNAMGWYRQAPGKEREFVAVITRSDDSTYADSVKGRFTISRDNAKNSVYLQMNSLKPEDTAVYYCAAQPFVIDGGYRGDYWGQGTQVTVSS | low polyreactivity |
| QVQLVESGGGLVQAGGSLRLSCAASGSIFDSNAMGRYRQAPGKERELVAAISLSGGSTYYADSVKGRFTISRDNAKNTVYLQMNSLKPVDTAVYYCAKDGWYEYYWGQGTQVTVSS | low polyreactivity |
| QVQLVESGGGLVQAGGSLRLSCAASGIIMRKYAMGWYRQAPGKERELVAAITTRGSRTYYADSVKGRFTISRDNAKNTVYLQMNSLKPEDTAVYYCAADRYTVRMDYWGQGTQVTVSS | high polyreactivity |
| QVQLVESGGGLVQAGGSLRLSCAASGSIFGYNTMGLYRKAPGKERELVAAISYRGGSTYADSVKGRFTISRDNAKNTVYLQMNSLKPVDTAVYYCDKRSIVGYRYSGYDYCGQGTQVTVSS | high polyreactivity |
| QVQLVESGGGLVQAGGSLRLSCAASGSIFKYNDMGWYRQAPGKERELVAAIRLGGGSTSYADSVKGRFTISRDNAKNTVYLQMNSLKPEDTAVYYCAAEINVGWLGSYDYWGQGTQVTVSS | low polyreactivity |
| QVQLLESGGGLVQAGGSLSLSCMASGSILGDRMSWYRQAPGKEHELVATIYDGGITYYADSMKGRFTISRDNAKNTVYLQMNSLRPEDTAVYYCGASFEGYRYHVYCGQGTQVTVSS | low polyreactivity |
| QVQLVESGGGLDQAGGSLRLSCAASGSIFVGYAMGWYRQAPGKERELVASINYSGGTTDYADSVKGRFTISRDNAKNTVYLQMHSLKPEDTAVYYCAKTAVDCSFTKGVDYDYWGQGTQVTVSS | low polyreactivity |
| KVQLVESGGGLVQAGGSLRFSCAASGSTFYIYAMGWYRPAPGKERELVATISSTGSTHYADSVKGRFTLSRDNAKNTVYLQMISLKPEDTAVYYCNPVYFGRYSRRDHWGQGTQVTVSS | high polyreactivity |
| KVQLVESGGGLVQAGGSLRFSCAASGFIFRNYAMGWYRQAPGKERELVAAITARGTRTYYSDSVKGRFTISRDNAKNTVYLQMNSLKPEDTAVYYCAAVVLPSRQYDYWGQGTQVTVSS | high polyreactivity |
| QVQHVESGGGLVQAGGSLRLSCAASGLTFYDYAMGWYRQAPGKERELVADIDFNGGSTSYADSVKGRFTISRDNAKNTVYLQMNSLKPEDTAVYYCAARIHGSWSFDYWGQGTQVTVSS | low polyreactivity |
| QVQLVESGGGLVQAGGSLRLSCAASGFIFSGNAMGWYRQAPGKERELVATITTGGTTKYADSVKGRFTISRDNAKNTVYLQMNSLKPEDTAVYYFAKSWSYWYQYYYWGQGTQVTVSS | low polyreactivity |
